Measured values from publication PMC8648943.
One block for each molecule: values may come before it.

What was measured:
[1] = molecular target: Pf3 coat protein with single cysteine 47C, tethered by its C-terminal end to the AFM tip through a PEG27-linker (phage Pf3) (UniProt P03623); experiment: dynamic single-molecule force spectroscopy (DFS) by AFM; as a5, contact time 52 ms
[2] = molecular target: Pf3 coat protein with single cysteine 47C, tethered by its C-terminal end to the AFM tip through a PEG27-linker (phage Pf3) (UniProt P03623); experiment: FD-AFM-based single-molecule force spectroscopy; as a2, contact time 52 ms
[3] = molecular target: Pf3 coat protein with single cysteine 47C, tethered by its C-terminal end to the AFM tip through a PEG27-linker (phage Pf3) (UniProt P03623); experiment: FD-AFM-based single-molecule force spectroscopy; Pf3 tethered through PEG27 to the AFM tip, YidC in supported POPE:POPG membranes on mica; contact time ≈2 ms; pulling velocity 3–4.5 µm s^–1; room temperature; 150 mM KCl, 20 mM HEPES, pH 7.4
[4] = molecular target: Pf3 coat protein with single cysteine 47C, tethered by its C-terminal end to the AFM tip through a PEG27-linker (phage Pf3) (UniProt P03623); experiment: dynamic single-molecule force spectroscopy (DFS) by AFM; Pf3 tethered through PEG27 to the AFM tip, YidC in supported POPE:POPG membranes; contact time 2 ms; pulling velocities 1–25 µm s^–1; Bell-Evans fit, k0 = zero-force transition rate of the bond; room temperature
[5] = molecular target: Pf3 coat protein with single cysteine 47C, tethered by its C-terminal end to the AFM tip through a PEG27-linker (phage Pf3) (UniProt P03623); experiment: AFM-based single-molecule force spectroscopy (height clamp mode); Pf3 tethered by its C-terminal end through a PEG27-linker to the AFM tip, held ≈5–10 nm above a supported POPE:POPG membrane with YidC for ≈1–2 s; force-time curves; lifetimes fitted with the Bell model; room temperature; 150 mM KCl, 20 mM HEPES, pH 7.4
[6] = molecular target: Pf3 coat protein with single cysteine 47C, tethered by its C-terminal end to the AFM tip through a PEG27-linker (phage Pf3) (UniProt P03623); experiment: FD-AFM-based single-molecule force spectroscopy; as a2, contact time 502 ms
[7] = molecular target: Pf3-47C labelled with Atto520 (phage Pf3) (UniProt P03623); experiment: FRET or BRET; single-molecule FRET on a confocal FCS setup; proteoliposomes with 1 nM YidC S405C-Atto647N (acceptor) mixed with 1 nM Atto520-labelled Pf3-47C (donor); 300 mM NaCl, 20 mM Tris-HCl, pH 7.5; recorded for 360 s

Molecule: wild-type (wt) YidC insertase from E. coli (from UniProt P25714 1-548)
koff [1]: 2 s⁻¹

Molecule: wild-type (wt) YidC insertase from E. coli (from UniProt P25714 1-548) (enzyme)
bond lifetime at zero force (t0, Bell model) [5]: 0.32 s
fraction of force-time curves with interaction events [5]: 2 to 4%
koff [5]: 3.1 s⁻¹
lifetime of the bond (reciprocal of k0) [1]: 0.5 s
fraction of (un-)binding forces >50 pN [2]: 48.7%
mean (un-)binding force [2]: 47.6 pN
mean (un-)binding force [3]: 29.5 pN
koff [4]: 0.03 s⁻¹
lifetime of the bond (reciprocal of k0) [4]: 33 s
mean (un-)binding force [6]: 50.8 pN

B1: R366E YidC S405C labelled with Atto647N (enzyme)
chain: MDSQRNLLVIALLFVSFMIWQAWEQDKNPQPQAQQTTQTTTTAAGSAADQGVPASGQGKLISVKTDVLDLTINTRGGDVEQALLPAYPKELNSTQPFQLLETSPQFIYQAQSGLTGRDGPDNPANGPRPLYNVEKDAYVLAEGQNELQVPMTYTDAAGNTFTKTFVLKRGDYAVNVNYNVQNAGEKPLEISSFGQLKQSITLPPHLDTGSSNFALHTFRGAAYSTPDEKYEKYKFDTIADNENLNISSKGGWVAMLQQYFATAWIPHNDGTNNFYTANLGNGIAAIGYKSQPVLVQPGQTGAMNSTLWVGPEIQDKMAAVAPHLDLTVDYGWLWFISQPLFKLLKWIHSFVGNWGFSIIIITFIVEGIMYPLTKAQYTSMAKMRMLQPKIQAMRERLGDDKQRICQEMMALYKAEKVNPLGGSFPLLIQMPIFLALYYMLMGSVELRQAPFALWIHDLSAQDPYYILPILMGVTMFFIQKMSPTTVTDPMQQKIMTFMPVIFTVFFLWFPSGLVLYYIVSNLVTIIQQQLIYRGLEKRGLHSREKKKS
modifications: Atto647N (acceptor) on cysteine S405C in the cytoplasmic α-helical hairpin
FRET events relative to wt YidC within 360 s [7]: 25%

Now from value to molecule:

fraction of (un-)binding forces >50 pN [2]: 10.5%
mean (un-)binding force [2]: 31.5 pN
mean (un-)binding force [3]: 29.1 pN
koff [4]: 0.03 s⁻¹
Molecule: R366E YidC mutant (from UniProt P25714 1-548) (enzyme)

koff [4]: 0.07 s⁻¹
Molecule: ΔCH2 YidC mutant (residues 399–415 deleted) (from UniProt P25714 1-548)

fraction of (un-)binding forces >50 pN [2]: 22.2%
mean (un-)binding force [2]: 41 pN
mean (un-)binding force [3]: 35.4 pN
Molecule: ΔCH2 YidC mutant (residues 399–415 deleted) (from UniProt P25714 1-548) (enzyme)
